Reference: article PMC6644155

Biological target: T1, Thyroid hormone receptor beta (THRβ), recombinant (Homo sapiens, UniProt P10828 1-461)
T1 sequence: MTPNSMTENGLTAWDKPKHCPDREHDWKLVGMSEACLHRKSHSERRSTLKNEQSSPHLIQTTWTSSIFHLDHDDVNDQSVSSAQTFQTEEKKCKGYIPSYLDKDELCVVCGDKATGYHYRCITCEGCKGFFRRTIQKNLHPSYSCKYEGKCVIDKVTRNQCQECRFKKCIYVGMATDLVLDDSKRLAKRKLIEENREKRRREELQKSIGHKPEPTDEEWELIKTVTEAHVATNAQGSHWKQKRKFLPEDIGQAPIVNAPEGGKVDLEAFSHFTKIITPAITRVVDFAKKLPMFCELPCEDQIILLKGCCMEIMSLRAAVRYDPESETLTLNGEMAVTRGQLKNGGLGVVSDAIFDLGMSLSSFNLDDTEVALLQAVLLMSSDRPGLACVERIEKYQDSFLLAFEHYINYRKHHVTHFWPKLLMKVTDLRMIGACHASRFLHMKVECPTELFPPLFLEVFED
Experiment: EMSA

B1: rs717-G (dsDNA)
DNA 1: CCCGGTCAGGACCACGGTGACCATGAGGGCG
DNA 2: CGCCCTCATGGTCACCGTGGTCCTGACCGGG
Does B1 bind?
Result: binds
